Our source for the protein production values is a protein production outcome set (Wang et al. 2014).

A short description of this series: label from the status in PepcDB records.
For “MQYLSILEALGGLGVFILGMKTMSEGLQKIAGDRFRRHLERIAGNRLTAALLGSTLSSLLQSSSAACIITVGFINAGLISLYQALGILLGTGIGTTLAVQFIAFKISSFALPAVFVGVCLRCFLRRRRWVNAGELILGAGLLFLGLRIMESNLQPLQEYAIVFTHQDMFVSKRIAAVLFGATLTLLVQSGSTAIAVIMALAGSSLVSFETGAAMVIGELLGTSVITAFASIGGTLEAKRTVFFYFMVNLLAVVVVMLVFPSYLSFVTYISPEDIASSAGISRVLANTHTLFSIMSAVIFLPLIGFFARTAPRIIPGSERASSVEARTVFIDPRVLNTPPIALLQARSELRRMAGISLTMYSEMVEQFFRYDARKAVGIRQKENAVDILQRDLTDFLVSLSRRELAPEASMEIPVMLQLIGELEHVADQSEAVLDYLRRKKEEKLLFSNAAMTEIRHLARTVEKLVDLAVETMDNPPPDAVEQGRSLRDDVGRQREAMLDGHIKRLSAGKCSVRAGIIYADMITAFVKIADSSVTIIETRKEFT”, the protein production result is on record as “failed”.
With “MRAAALAGAAGVVLCLLGGIGGAVAALSLWLAQPAFALAVSWARGTRAVPGQPRAIAQALPPLLAIWGVGLLALAALISWPLTALRDSGSLAAALALSVAVSAALLGLWRTWPLWGEVERDGGALAPRWQALAAQELHAWRGLLAAALVLAMCTLAVVLAWPGWLSGGLRWGLAVAACVLLPVAHLLLQRTPAPMRSDVPQTRQAADFFSEAAAEPRPLEPVAQHQLVPELFEAARSGRVDRALQLLEAGADPQALPLPEWRDQRSLPALAAVLPDLRLLRELIVRRVDVNQPHRGMTPLLAATRDSWHGRPDAVMTLLANGADPRASDNDGNTPLHHAVRSSDPGVAALLHDAAAELDALNNEGHSPLAMACQVGNWRLAKFLLERGAQSEPEGGAPVLLAAAGTEEDDPAGVQLLLKHKARVDARDRQRRSALHEAALAGHGDIVEALLSAGANLEARDLLGRTPWLDAARQARSAVLERLVARKADVLAIDGDGRNALMLACAADNVSPALIRRLLDLQVPADSVDAHGRRAVDVAAEAGRWAIVQLLDPAYPLPAAVSDAQGDTPGAAVLPDRPPLVLLREGLQLGQRDGLVALARLCAPDELGGLLHDAHLALNAEAVDWLLRHGADAEVRDACGDVPMFALLSRGVEAVPALQALLRHGVSPAGAGGLTRLLSACVQHDAASRGLEQFALELLERGADPFAPSAAGDPPLSLAVRLGWLRLQHWLLEHGVDREARDSHGMTALHLATALGRDASLKLLVKQGASPEARAADGQTPLGVALSIGRRDLADWLDWRIWSLPRRTLREADVPAAAMTGDTDAVRRLIDLGLAVDAVDAQGCTALLRAAGGGHLGVVTHLLGRGADPQRAANSGATPLSAAVSMRQTEIVAALLHAGAQIEHRLPGGVTVLMLACALGLPDIVARLLTAAADVHATDNQGLAPLHCAALYGFTARDKNRLLALLDTLLLAGADPDYLAGGRVSPLLLLLGARAEPGTSCDEQVVLAGVERLLDEDVSLDVADQRGFGPLHLAALHGLPLLVQRLLRAGADADRRDALNRTPREIAIMRGFIDVAGQFEPALPGVSSMARFLREGR”, the protein production entry is listed as “failed”.
The entry for “MRAARLIKMVLLLQSRPTMTAAELARELEVSERTVTRDAQALSEAGVPVYAERGRAGGYRLVGGYRTRLTGLARGEAEALFLSGVPGALREMGLEDAASAARLKVSAALLPSLRDASRTAAQRFHLDAPNWFREPETPELLPAVADAVWDDRRVAARYRRGTDEVVRELEPYGLVLKAGVWYLCARVAGTAGDGPFRVYRIDRFTAVEAGEERFVRDDGFDLPAFWAERAEQFARSILRAEVVVRLSERGVRGLPYAVDALSAREALEAAGAPDADGWVTVALPVESEEVAHAQLRGLGPEVEVLAPAALRERFAREARRLAELYGG” is “failed”.
As for “MRAAVRTRIVATYLAVAALWGSTWMAIRIGLEDLPPLRFAGVRMAIAALVLAPFALRGGAWREVVGPARAQLALVAVLQIALPYGLMFVAQQWVPSGLAAVLFASFPVWIALLARALVPGETLTPARVASALLGIAGVAVLQLPHLGDLEGSGRLLLGGALVVLSSMIVALANVLVRRHLAAVSPLAMTAGQTAVGAVLLLAAAALLEQGRPAAFTASAVAALAWLAVFGTALTYVGLYWLVPRVPMAAIGALPLLDTSVAVTLGALVLHEPVGWNLALGGGMVLAAAALTIPRRR”, the protein production entry was “failed”.
As for “MRACAPIFRLLGGGVEHLGKSGRPGSGGRWWPLCGWLALAALVPAVQAEEGEPAPVEASAAARLVDVNEYFVRGNTVLDARAIEEAVYPFLGPQKALADIEGARDALQKVYQERGYQSVFVELPEQKVEDGIVYLQVSETKVGRVRVVGAKHYSPVEIRDQVPALKEGEVPDFATVQSQLAGLNRGAGRQVMPLVREGQRPGTMDVDLQVEDQNPWHASVGLNNDYSADTEKLRTVVNVGYDNLWQLGHSISLTYFTAPQDTDNAKVWSGSYTAPLSDRWALQFSGYQSDSNIATIGGSNVLGKGHSYGVSAIYTLPAAGNWANSLSVGVDFKDFEEEMRFGRSSDQIPLKYAPMTFGYNGYRYSEKAQLGLGLNLIVGTRRFFGYGSDAEEFHYKRDEASASFSVLKGDLNFTYTFANDWQSASKAAFQLASGPLVSNEQYSAGGATSVRGYLAAERTGDEGYLFSQELRTPSLAKFLGSYVQEWRFYAFAEGAHLSLHDPLPEQEDEYSLASVGLGTRASLSKWLSGSLDWGYPLKDGPNTQKYDPRLHFSVQATF”, the protein production result is on record as “failed”.
The value for “MRADRSMLGPSLHRDQIMAMNRVQFQAGLSLPAFLKRYGNAQQCEQALEISRWPQGFVCPHCAATAHSRFQRHGTTYWQCTACYRQTSLRSGTVMDNSKLPLRTWLLGMYLLGQSKTNLSALELMRHLGVSYPTAWPMKHKLMQAMTQREANRKLGGIVQLDDAYLGGERNGGKAGRGSENKRLFVIAVETTEDGRPLRAVMDPVPGFTKAALSEWIGQRLHPGADVYSDGLGAFRALEAEHAHTVIEGSGRSRCEAENARWVNVVLSNLKRSLDGAYHAFKYAQRYLAETMWRFNRRFDLTRLVPSLLAAAAASKPWSERALRDVTMFTAESAC” was “failed”; that for “MRALIRYEDVPSKLWTLPKMTDFWGIGKRTEKRLNKLGISSIKELTNADPLLLKQKLGTIGLQHFFHANGIDESNVRLEHHHHHH” was “failed”.
The entry for “MRALIVSNPNSTTQSAEMFRHVIPTLRAVPGLELRAQMTHYAGHARHMCENLTVEDYDVVIAVGGDGTVNEVINGLLGDLPSAPPALAVIPTGSANVFARALGLPADPAQAAEVLADALHKGSTRRINLGKWGS” is “failed”; for “MRAMVSRLNSAVSRLFLFAFVAVMPTLVQAQSVNEGQSVRALTTDSSGALLVLRQSGLFALDSQNTTEIPLPPSDSGAQPRSMAKGGDESLYLAGPGLGIWRYDEASKRWQSLNDTLPDLGVTAIAAHATQPDTLYAYLGDGGMFRSRDDGAEWVKVDNGPREPVQAFLHSDMPGSMESGWLFAGTTRGVARSMDCFCFWGDAGELRGTVSAIDYDPWAPENVYAVIEGELHRSSDGGETWAGLEIPQAVTALTFSPTERLVVGTENGELLSQNASGEWVPVYE” it is “failed”; for “MRATACWFVSGLVTFKSENKTRRLVSATHNSRPSMSRVRSWILVVGVLVGAVGGCAEPQDGRGPATADSIAATAPGTDVVGAPLDASGDTLRMGRPTPVTTRPGYDNQPAFLPDGSGLVWTAIHDGQADVYRKIEDEGGPAPVTDTPESEFSPTPRPGGALTLVRVEADGRQRLWRYRADGTPDAPVLPDADSVGYHAWLDSSRVALFVLGAPPTLHVANVKSGTDTVVARRIGRSLQSVPGRADVSFVQVGPDSSVAIHRLDGASLTTRRLTEAPTNAPTGDHAWTPGGHLLMTTEDSLVAWRRGRADWRPVAALDTMDVSRLAVSPSGDRLAMVAAE” it is “failed”.
Regarding “MRAVIPYKKAGAKSRLSPVLSLQEREEFVELMLNQVISSLKGAGIEQVDILSPSVYGLEEMTEARVLLDEKDLNEALNRYLKEAEEPVLIVMADLPLLSPEHIKEISSTEKDVCIVPGKGGGTNALFIKNPSKYRVKYYGSSFLTHCSIATDSGQDFEIYDSFMAGTDIDEPEDLVELLIHGKGAAKDYIESKFRLEVKKG”, the protein production entry is reported as “failed”.
The entry for “MRDATYPQLWAAVRAARKAGRTLESVKPAADQFQVKHNGDIVTEADRTVEETILAELSGQFPVHTVVSEESAPEFTTKPRWIIDPIDGTTNFLNGIPHYSISIAFEGAGEPDVGIVYHVPSETMYTAIEGGGAYANGQPLSLSATTELSEALIVTGFDTASMQAQEYDHFRTILNVTQGVRRFGSAAGELAMVAAGQFDAFFERQLSVWDTAAGVKIVEEAGGEVTRIKALDGKNSEMVLASNEAIHQDLVALVSAGTVPKMDGQ” is “failed”; for “MRDAYLMMVLMDALKEIFDLKEILKSPIRNKKVILFVSLVFILSLVLLYILVVNIKYFSYLGDIIFQNFQKHVENLKITLNEDNLHIILAIWKNNLTVCILNYILGIFSLFVIAVNSYILSYVLYKFGAESFIYLVLPHGIIEIPALILSASGGVLFNMGLVNFLINIKFGTKREVLYYIKESLKLLILSIILFIVAGIVEGTITFKIAKIMFS” it is “failed”; for “MRDLDREETYLVDRTGLALELRDLVGTGPVPGEAYPGPHAALGYGEGQFAALLSGLPDWGEEGTLFLLEGGYDLGEAAGMALLAETGRARVVRVGFRPGVEVHIPPSPLAPYRYLRFLLLATGREEVLRSVDEALLEERRRLGPEVPVEENPAKFLAYTLLERLPLFYSPLFRPLEGAVQTLFARVAKSLSLTPPPSALEFFLVGLEARHEQGDPLAAVLLGPGEEAALAKEILESRVDALAEVPATGANRLAQVMALWYRMAWTAYYLALLYGVDPGDHGLLERLREVT” it is “not failed”.
The value for “MRDLLNDLSEGLSHPDPILRAQIQMQKPLPKRFYKDVTVADVEEGGFTILLDGKPLRTPAKKPLVAPSRALADLLRDEWDAQKEVVNPVVMPVSRHVNTAIDGIASDTQAVFEDILRFSSSDLLCYRAGDPEALVARQTDYWDPVLDWATNVLGARFILVEGVMHRDQPREAIAAFAVTLKKYDTPIALAALHTMTSLTGSAILALALAEGELTLEEAWALAHLDEDWTAEQWGEDEEALERRAVRLIDMRAALNVLESLKSASLEHHHHHH” was “failed”; that for “MRDSFGDWAEKFLKSKEADGVSVSQLNSYKNYCRNHLSPLYMKSLSEILPADIQSIINETKLAKNTLKAIRNTASQIFRLAIENRAIDFNPADYVRIPKIALEHHHHHH” was “not failed”.
As for “MREGLRVLNSCNKVRGIFTLTQKTIKTFCFILAILVLIIFAVVFHNHSLEIIDYIDDLGWLAPVLFLITYCLATLLLLPTMVLTLAGGAVFGPVFGTLLNLLGATSGAALAFLITRHLVYDWFSTKKGEKLNKLIAGVDEKGWVFVAFLRLFPIVPFNLVNYGLGVTGISFRLYLLTTFIFLIPAEIIYTYFGYVGMDALTRPGHLYRNGGIFLTGLAIFFLLVIRIMKKR”, the protein production entry is reported as “failed”.
The entry for “MREIPLVSVALATYNGERYLRRQLDSVLAQTYRNIEIVVSDDCSRDGTVAILEEYRRAHGITFRVNERNLGFVRNFERALAGCRGEFIALSDQDDIWLPEKIETLVREIGPHSLIYTDALLIDGDDQPLPGSLVEVSGVRPVSGTCFEYFVCNNCVTGCTAMLRRDLLATALPIPEAETYHDWWLAVAASRRNGVVYHAAKLTEYRQHAHNYTGANVRAGLPARIAAHLMGKTAAEKRGYYELLANRARRYRAMADRLNLTPAERSFLEEIGEYAESLLSGGNRMKTFALALKYRETLFPAAGRWEKLLFVFSKLIAARAILEHHHHHH” is “not failed”; for “MRELLVFLHILSAATWIGAALWVPGDVKRTVALGRPFVEQLAARARPALKLDLYAGFAVLVTGVLLIGVDGGHPRTGILVGFAATLARLLVVGFASMPAWRRVEGAVASGDLAAATAPARRLAMLGGIGHALWAIALAGMVF” it is “failed”.
